Data as given in publication PMC8477557 (2021).

Molecular target: αCD123
Assay: SPR

B1: CD123 extracellular domain (domain or fragment)
chain: TKEDPNPPITNLRMKAKAQQLTWDLNRNVTDIECVKDADYSMPAVNNSYCQFGAISLCEVTNYTVRVANPPFSTWILFPENSGKPWAGAENLTCWIHDVDFLSCSWAVGPGAPADVQYDLYLNVANRRQQYECLHYKTDAQGTRIGCRFDDISRLSSGSQSSHILVRGRSAAFGIPCTDKFVVFSQIEILTPPNMTAKCNKTHSFMHWKMRSHFNRKFRYELQIQKRMQPVITEQVRDRTSFQLLNPGTYTVQIRARERVYEFLSAWSTPQRFECDQEEGANTRAWR
- Kd: 1.2 nM
